Source: patent WO2021244601A1 (dated 2021)

B1: CA304 (antibody, V domains shown)
VH: EVQLQQWGAGLLKPSETLSLTCAVYGGSFSGYYWSWIRQPPGKGLEWIGEVNHSGSTNYNPSLKSRVTISVDTSKNQLSLKLNSVTAADTAVYYCARGNTMVRGVIIPFEYWDKGTLVTVSS
VL: DIVMTQTPLSLPVTLGQPASISCRSSQSLVHSDGNTYLNWFQQRPGQSPRRLIYKVSNRDSGVPDRFSGSGAGTDFTLKISRVEAEDVGVYYCTQATQFPFTFGPGTKVDIKR
B2: CA555 (antibody, V domains shown)
VH: B1 VH
VL: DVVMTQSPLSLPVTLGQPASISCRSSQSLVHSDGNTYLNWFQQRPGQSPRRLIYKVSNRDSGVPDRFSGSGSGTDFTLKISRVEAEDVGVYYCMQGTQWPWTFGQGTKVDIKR
B3: CA530 (antibody)
heavy: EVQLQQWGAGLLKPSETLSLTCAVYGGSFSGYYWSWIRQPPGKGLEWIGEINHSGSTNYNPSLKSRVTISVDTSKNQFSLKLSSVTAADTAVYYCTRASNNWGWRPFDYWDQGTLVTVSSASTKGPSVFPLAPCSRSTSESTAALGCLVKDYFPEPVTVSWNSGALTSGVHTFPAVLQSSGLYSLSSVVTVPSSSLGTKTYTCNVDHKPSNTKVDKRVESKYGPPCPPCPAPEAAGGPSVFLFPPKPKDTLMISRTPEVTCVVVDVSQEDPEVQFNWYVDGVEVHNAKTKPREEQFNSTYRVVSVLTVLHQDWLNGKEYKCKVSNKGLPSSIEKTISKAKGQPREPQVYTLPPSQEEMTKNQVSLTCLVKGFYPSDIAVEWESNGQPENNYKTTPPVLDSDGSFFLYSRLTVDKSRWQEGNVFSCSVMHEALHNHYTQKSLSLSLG
light: DIVMTQTPLSLPVTLGQPASISCRSSQSLVHSDGNTYLNWFQQRPGQSPRRLIYKVSNRDSGVPDRFSGSGSGTDFTLKISRVEAEDVGVYYCMQGTHWPRTFGQGTKVEIKRTVAAPSVFIFPPSDEQLKSGTASVVCLLNNFYPREAKVQWKVDNALQSGNSQESVTEQDSKDSTYSLSSTLTLSKADYEKHKVYACEVTHQGLSSPVTKSFNRGEC
notes: copies: 2 + 2
B4: IgG4 wild-type control antibody (antibody)
heavy: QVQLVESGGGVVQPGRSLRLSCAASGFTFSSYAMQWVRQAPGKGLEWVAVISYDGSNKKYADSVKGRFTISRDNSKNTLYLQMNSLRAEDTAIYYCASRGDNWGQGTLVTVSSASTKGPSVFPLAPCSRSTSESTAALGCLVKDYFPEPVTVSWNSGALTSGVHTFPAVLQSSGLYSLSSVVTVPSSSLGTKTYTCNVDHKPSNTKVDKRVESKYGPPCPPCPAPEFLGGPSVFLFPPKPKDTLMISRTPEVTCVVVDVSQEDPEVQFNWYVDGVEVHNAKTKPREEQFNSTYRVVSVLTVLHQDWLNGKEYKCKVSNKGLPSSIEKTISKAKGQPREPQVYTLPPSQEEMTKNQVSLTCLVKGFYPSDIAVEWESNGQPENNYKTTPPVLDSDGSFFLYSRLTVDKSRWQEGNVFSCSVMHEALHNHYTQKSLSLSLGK
light: DIVMTQSPSSLSASVGDRVTITCRASQGIRNDLGWYQQKPGKAPKLLIYAASSLQSGVPSRFSGSGSGTDFTLTISSLQPEDFATYYCLQDYNYPRTFGQGTKVEIKRTVAAPSVFIFPPSDEQLKSGTASVVCLLNNFYPREAKVQWKVDNALQSGNSQESVTEQDSKDSTYSLSSTLTLSKADYEKHKVYACEVTHQGLSSPVTKSFNRGEC

What was measured:
[1] = biological target: S protein of Wuhan-Hu-1 on pseudovirus (SARS-CoV-2 Wuhan-Hu-1 strain, UniProt P0DTC2 14-1273); test: cell-based or functional assay
[2] = biological target: S protein of SARS-CoV-2 true virus, strain BetaCoV/Beijing/IMEBJ01/2020 (SARS-CoV-2 BetaCoV/Beijing/IMEBJ01/2020); test: cell-based or functional assay
[3] = biological target: Spike S1+S2 protein of Wuhan-Hu-1 (Yiqiao Shenzhou / SB, 40589-V08B1) (SARS-CoV-2 Wuhan-Hu-1 strain, UniProt P0DTC2 16-1213)
[4] = biological target: T1, human CD64 (ACROBiosystems, catalog number FCA-H52H2) (human, UniProt P12314 16-288); test: BLI, OctetRED 96, antibody on FAB2G sensor
T1 construct: also called CD64 protein; human CD64 receptor

[5] = biological target: T1, human CD64 (ACROBiosystems, catalog …)

T1 sequence (P12314 16-288 limits assumed): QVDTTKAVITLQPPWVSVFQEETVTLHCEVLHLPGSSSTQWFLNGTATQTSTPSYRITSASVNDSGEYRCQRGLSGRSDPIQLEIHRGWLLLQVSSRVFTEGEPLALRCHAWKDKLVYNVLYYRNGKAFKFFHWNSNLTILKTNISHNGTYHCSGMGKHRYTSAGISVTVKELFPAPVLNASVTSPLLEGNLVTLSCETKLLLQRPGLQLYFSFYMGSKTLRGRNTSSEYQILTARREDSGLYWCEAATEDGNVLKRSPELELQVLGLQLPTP

Binder | IC50(nM), pseudovirus neutralisation on 293T-ACE2 cells (Luciferase RLU) [1] | IC50, pseudovirus neutralisation (method as 3.15) [1] | IC50, neutralisation of true virus on Vero cells (plaques) [2] | IC50 [3] | binding result [4] | Kd [5]
B1 | 0.2 nM | 0.821 nM | 0.08 µg/mL | 0.176 nM | – | –
B2 | 0.98 nM | 0.328 nM | – | 0.187 nM | – | –
B3 | 0.11 nM | – | – | – | no binding | –
B4 | – | – | – | – | – | 3.41 nM
